Reference: the supplement of paper PMC10567573

B1: SNX3 (parent)
chain: FLRQLPFRGDDGIFDDNFIEERKQ

Variants of: B1
Test: protein stability index of a GFP-peptide fusion (GPS, HEK-293T) (PSI 1-6); higher = more stable
Conditions: c terminus: a fixed tail appended
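Further: lentivirally expressed fusions sorted by FACS into six bins by GFP to DsRed ratio, PSI derived from sequencing read proportions per bin multiplied by bin number.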

Variant	protein stability index
FLRQLFFRGDDGIFDDNFIEERKQ [P6F]	2.14
FLRQLIFRGDDGIFDDNFIEERKQ [P6I]	2.26
FLRQLTFRGDDGIFDDNFIEERKQ [P6T]	2.92
FLRQLCFRGDDGIFDDNFIEERKQ [P6C]	2.49
FLRQLAFRGDDGIFDDNFIEERKQ [P6A]	2.22
FLRQLQFRGDDGIFDDNFIEERKQ [P6Q]	3.32
FLRQLVFRGDDGIFDDNFIEERKQ [P6V]	2.29
FLRQLWFRGDDGIFDDNFIEERKQ [P6W]	2.15
FLRQLNFRGDDGIFDDNFIEERKQ [P6N]	3.02
FLRQLRFRGDDGIFDDNFIEERKQ [P6R]	3.1
FLRQLPFRGDDGKFDDNFIEERKQ [I13K]	4.7
FLRQLPFRGDDGPFDDNFIEERKQ [I13P]	4.03
FLRQLPFRGDDGFFDDNFIEERKQ [I13F]	3.03
FLRQLPFRGDDGLFDDNFIEERKQ [I13L]	3.26
FLRQLPFRGDDGSFDDNFIEERKQ [I13S]	3.8
FLRQLPFRGDDGWFDDNFIEERKQ [I13W]	2.72
FLRQLPFRGDDGEFDDNFIEERKQ [I13E]	4
FLRQLPFRGDDGTFDDNFIEERKQ [I13T]	3.48
FLRQLPFRGDDGYFDDNFIEERKQ [I13Y]	3.83
TLRQLPFRGDDGIFDDNFIEERKQ [F1T]	4.59
CLRQLPFRGDDGIFDDNFIEERKQ [F1C]	4.1
KLRQLPFRGDDGIFDDNFIEERKQ [F1K]	4.68
QLRQLPFRGDDGIFDDNFIEERKQ [F1Q]	4.96
ALRQLPFRGDDGIFDDNFIEERKQ [F1A]	4.63

Variant	protein stability index
MLRQLPFRGDDGIFDDNFIEERKQ [F1M]	3.56
ILRQLPFRGDDGIFDDNFIEERKQ [F1I]	3.58
VLRQLPFRGDDGIFDDNFIEERKQ [F1V]	3.87
NLRQLPFRGDDGIFDDNFIEERKQ [F1N]	4.44
LLRQLPFRGDDGIFDDNFIEERKQ [F1L]	3.83
RLRQLPFRGDDGIFDDNFIEERKQ [F1R]	4.59
FLRQLPFRGDDGIFDQNFIEERKQ [D16Q]	3
FLRQLPFRGDDGIFDSNFIEERKQ [D16S]	3.53
FLRQLPFRGDDGIFDGNFIEERKQ [D16G]	3.18
FLRQLPFRGDDGIFDKNFIEERKQ [D16K]	3.86
FLRQLPFRGDDGIFDHNFIEERKQ [D16H]	3.6
FLRQLPFRGDDGIFDANFIEERKQ [D16A]	2.62
FLRQLPFRGDDGIFDYNFIEERKQ [D16Y]	2.8
FLRQLPFRGDDGIFDWNFIEERKQ [D16W]	2.73
FLRQLPFRGDDGIFSDNFIEERKQ [D15S]	3.15
FLRQLPFRGDDGIFNDNFIEERKQ [D15N]	2.75
FLRQLPFRGDDGIFVDNFIEERKQ [D15V]	2.65
FLRQLPFRGDDGIFKDNFIEERKQ [D15K]	2.96
FLRQLPFRGDDGIFTDNFIEERKQ [D15T]	3.94
FLRQLPFRGDDGIFPDNFIEERKQ [D15P]	3.04
FLRQLPFRGDDGIFDDNFIETRKQ [E21T]	3.13
FLRQLPFRGDDGIFDDNFIEVRKQ [E21V]	2.02
FLRQLPFRGDDGIFDDNFIEHRKQ [E21H]	2.64
FLRQLPFRGDDGIFDDNFIEQRKQ [E21Q]	2.84

Variant	protein stability index
FLRQLPFRGDDGIFDDNFIEKRKQ [E21K]	3.33
FLRQLPFRGDDGIFDDNFIEYRKQ [E21Y]	2
FLRQLPFRGDDGIFDDNFIEARKQ [E21A]	3.12
FLRQLPFRGDDGIFDDNFIEEIKQ [R22I]	2.78
FLRQLPFRGDDGIFDDNFIEEWKQ [R22W]	4.24
FLRQLPFRGDDGIFDDNFIEEMKQ [R22M]	3.45
FLRQLPFRGDDGIFDDNFIEEDKQ [R22D]	3.44
FLRQLPFRGDDGIFDDNFIEESKQ [R22S]	2.81
FLRQLPFRVDDGIFDDNFIEERKQ [G9V]	3.08
FLRQLPFRNDDGIFDDNFIEERKQ [G9N]	2.72
FLRQLPFRRDDGIFDDNFIEERKQ [G9R]	3.27
FLRQLPFRPDDGIFDDNFIEERKQ [G9P]	3.06
FLRQLPFRHDDGIFDDNFIEERKQ [G9H]	3.08
FLRQLPFRADDGIFDDNFIEERKQ [G9A]	3.68
FLRQLPFRQDDGIFDDNFIEERKQ [G9Q]	2.98
FLRQLPFRGDDGIFDDNAIEERKQ [F18A]	4.56
FLRQLPFRGDDGIFDDNDIEERKQ [F18D]	4.12
FLRQLPFRGDDGIFDDNVIEERKQ [F18V]	3.67
FLRQLPFRGDDGIFDDNSIEERKQ [F18S]	4.3
FLRQLPFRGDDGIFDDNCIEERKQ [F18C]	4.21
FLRQLPFRGDDGIFDDNLIEERKQ [F18L]	3.75
FLRQLPFRGDDGIFDDNKIEERKQ [F18K]	3.44
FLRQLPFRGDDGIFDDNWIEERKQ [F18W]	3.2
FLRQLPFRGDDGIFDDNTIEERKQ [F18T]	3.96

Variant	protein stability index
FLRQLPFRGDDGIFDDNHIEERKQ [F18H]	3.19
FLRQLPFRGDDGIFDDPFIEERKQ [N17P]	3.23
FLRQLPFRGDDGIFDDKFIEERKQ [N17K]	3.98
FLRQLPFRGDDGIFDDEFIEERKQ [N17E]	4.18
FLRQLPFRGDDGIFDDDFIEERKQ [N17D]	3.83
FLRQLPFRGDDGIFDDCFIEERKQ [N17C]	3.27
FLRQLPFRGDDGIFDDGFIEERKQ [N17G]	4.12
FLRQLPFRGDDGIFDDNFIEERKW [Q24W]	2.1
FLRQLPFRGDDGIFDDNFIEERKF [Q24F]	2.96
FLRQLPFRGDDGIFDDNFIEERKE [Q24E]	3.44
FLRQLPFRGDDGIFDDNFIEERKV [Q24V]	2.61
FLRQLPFRGDDGIFDDNFIEERKD [Q24D]	3.62
FLRQLPFRGDDGIFDDNFIEERKM [Q24M]	2.56
FPRQLPFRGDDGIFDDNFIEERKQ [L2P]	4.66
FNRQLPFRGDDGIFDDNFIEERKQ [L2N]	4.08
FWRQLPFRGDDGIFDDNFIEERKQ [L2W]	3.02
FQRQLPFRGDDGIFDDNFIEERKQ [L2Q]	3.07
FCRQLPFRGDDGIFDDNFIEERKQ [L2C]	3.48
FSRQLPFRGDDGIFDDNFIEERKQ [L2S]	4.56
FARQLPFRGDDGIFDDNFIEERKQ [L2A]	3.84
FHRQLPFRGDDGIFDDNFIEERKQ [L2H]	2.34
FIRQLPFRGDDGIFDDNFIEERKQ [L2I]	2.59
FVRQLPFRGDDGIFDDNFIEERKQ [L2V]	2.19
FTRQLPFRGDDGIFDDNFIEERKQ [L2T]	4.04

Variant	protein stability index
FLRQLPFRGDDGIFDDNFIHERKQ [E20H]	2.29
FLRQLPFRGDDGIFDDNFIWERKQ [E20W]	2.17
FLRQLPFRGDDGIFDDNFIYERKQ [E20Y]	2.84
FLRQLPFRGDDGIFDDNFIIERKQ [E20I]	1.67
FLRQLPFRGDDGIFDDNFIRERKQ [E20R]	3.24
FLRQLPFRGDDGIFDDNFIPERKQ [E20P]	2.44
FLRQLPFRGDDGIFDDNFILERKQ [E20L]	2.56
FLRQLPFRGDDGIFDDNFIGERKQ [E20G]	3.17
FLRQLPFRGDDGIWDDNFIEERKQ [F14W]	3.38
FLRQLPFRGDDGIRDDNFIEERKQ [F14R]	3.88
FLRQLPFRGDDGIIDDNFIEERKQ [F14I]	3.76
FLRQLPFRGDDGIEDDNFIEERKQ [F14E]	4.56
FLRQLPFRGDDGILDDNFIEERKQ [F14L]	3.56
FLRQLPFRGDDGIYDDNFIEERKQ [F14Y]	2.84
FLRQLPFRGDDGIMDDNFIEERKQ [F14M]	3.67
FLRQLPFRGDDGIFDDNFIEERPQ [K23P]	3.36
FLRQLPFRGDDGIFDDNFIEERCQ [K23C]	3.36
FLRQLPFRGDDGIFDDNFIEERTQ [K23T]	3.52
FLRQLPFRGDDGIFDDNFIEERWQ [K23W]	2.75
FLRQLPFRGDDGIFDDNFIEERRQ [K23R]	2.95
FLRQLPFRGDDGIFDDNFIEERFQ [K23F]	2.9
FLRQLPFRGDDGIFDDNFIEERNQ [K23N]	3.92
FLRQLPFRGDLGIFDDNFIEERKQ [D11L]	2.71
FLRQLPFRGDYGIFDDNFIEERKQ [D11Y]	2.32

Variant	protein stability index
FLRQLPFRGDVGIFDDNFIEERKQ [D11V]	4.03
FLRQLPFRGDTGIFDDNFIEERKQ [D11T]	3.37
FLRQLPFRGDIGIFDDNFIEERKQ [D11I]	2.53
FLRQLPFRGDAGIFDDNFIEERKQ [D11A]	4.01
FLRQLPFRGDQGIFDDNFIEERKQ [D11Q]	3.16
FLRRLPFRGDDGIFDDNFIEERKQ [Q4R]	2.27
FLRSLPFRGDDGIFDDNFIEERKQ [Q4S]	2.95
FLRNLPFRGDDGIFDDNFIEERKQ [Q4N]	2.13
FLRCLPFRGDDGIFDDNFIEERKQ [Q4C]	2.83
FLRALPFRGDDGIFDDNFIEERKQ [Q4A]	3.78
FLRYLPFRGDDGIFDDNFIEERKQ [Q4Y]	1.48
FLRLLPFRGDDGIFDDNFIEERKQ [Q4L]	1.91
FLRQLPFEGDDGIFDDNFIEERKQ [R8E]	3.94
FLRQLPFIGDDGIFDDNFIEERKQ [R8I]	2.67
FLRQLPFNGDDGIFDDNFIEERKQ [R8N]	3.68
FLRQLPFCGDDGIFDDNFIEERKQ [R8C]	2.33
FLRQLPFQGDDGIFDDNFIEERKQ [R8Q]	4.22
FLRQLPFDGDDGIFDDNFIEERKQ [R8D]	2.9
FLRQLPFLGDDGIFDDNFIEERKQ [R8L]	2.95
FLRQLPFMGDDGIFDDNFIEERKQ [R8M]	3.1
FLRQLPFTGDDGIFDDNFIEERKQ [R8T]	3.97
FLRQLPFRGKDGIFDDNFIEERKQ [D10K]	3.41
FLRQLPFRGWDGIFDDNFIEERKQ [D10W]	2.35
FLRQLPFRGPDGIFDDNFIEERKQ [D10P]	3.42

Variant	protein stability index
FLRQLPFRGVDGIFDDNFIEERKQ [D10V]	3.72
FLRQLPFRGRDGIFDDNFIEERKQ [D10R]	3.27
FLRQLPFRGLDGIFDDNFIEERKQ [D10L]	2.42
FLRQLPFRGFDGIFDDNFIEERKQ [D10F]	2.62
FLRQLPFRGHDGIFDDNFIEERKQ [D10H]	3.65
FLRQLPFRGDDMIFDDNFIEERKQ [G12M]	3.79
FLRQLPFRGDDSIFDDNFIEERKQ [G12S]	3.21
FLRQLPFRGDDFIFDDNFIEERKQ [G12F]	3.03
FLRQLPFRGDDNIFDDNFIEERKQ [G12N]	3.23
FLRQLPFRGDDQIFDDNFIEERKQ [G12Q]	3.84
FLRQLPFRGDDPIFDDNFIEERKQ [G12P]	2.74
FLRQKPFRGDDGIFDDNFIEERKQ [L5K]	4.01
FLRQWPFRGDDGIFDDNFIEERKQ [L5W]	1.96
FLRQFPFRGDDGIFDDNFIEERKQ [L5F]	3.36
FLRQHPFRGDDGIFDDNFIEERKQ [L5H]	3.22
FLRQNPFRGDDGIFDDNFIEERKQ [L5N]	3.78
FLRQPPFRGDDGIFDDNFIEERKQ [L5P]	3.78
FLRQIPFRGDDGIFDDNFIEERKQ [L5I]	2.18
FLEQLPFRGDDGIFDDNFIEERKQ [R3E]	3.2
FLVQLPFRGDDGIFDDNFIEERKQ [R3V]	2.98
FLHQLPFRGDDGIFDDNFIEERKQ [R3H]	3.12
FLCQLPFRGDDGIFDDNFIEERKQ [R3C]	2.71
FLYQLPFRGDDGIFDDNFIEERKQ [R3Y]	2.28
FLSQLPFRGDDGIFDDNFIEERKQ [R3S]	3.1

Variant	protein stability index
FLDQLPFRGDDGIFDDNFIEERKQ [R3D]	3.45
FLGQLPFRGDDGIFDDNFIEERKQ [R3G]	3.1
FLMQLPFRGDDGIFDDNFIEERKQ [R3M]	2.76
FLRQLPRRGDDGIFDDNFIEERKQ [F7R]	3.58
FLRQLPPRGDDGIFDDNFIEERKQ [F7P]	2.62
FLRQLPLRGDDGIFDDNFIEERKQ [F7L]	3.23
FLRQLPDRGDDGIFDDNFIEERKQ [F7D]	4.03
FLRQLPHRGDDGIFDDNFIEERKQ [F7H]	3.52
FLRQLPTRGDDGIFDDNFIEERKQ [F7T]	4.35
FLRQLPGRGDDGIFDDNFIEERKQ [F7G]	3.5
FLRQLPSRGDDGIFDDNFIEERKQ [F7S]	3.76
FLRQLPKRGDDGIFDDNFIEERKQ [F7K]	4
FLRQLPFRGDDGIFDDNFAEERKQ [I19A]	4.03
FLRQLPFRGDDGIFDDNFYEERKQ [I19Y]	3.15
FLRQLPFRGDDGIFDDNFLEERKQ [I19L]	3
FLRQLPFRGDDGIFDDNFFEERKQ [I19F]	3.79
FLRQLPFRGDDGIFDDNFCEERKQ [I19C]	3.29
FLRQLPFRGDDGIFDDNFNEERKQ [I19N]	3.94
FLRQLPFRGDDGIFDDNFMEERKQ [I19M]	3.75
FLRQLPFRGDDGIFDDNFKEERKQ [I19K]	3.62
